Laboratory results taken from the Immune Epitope Database (IEDB).

Columns and labels:
[1] = target: HLA-C*08:02; assay: IEDB peptide-MHC binding, purified MHC/direct/fluorescence; filed as Kd, often an IC50 or EC50 that approximates it; ≥ and ≤ were set here for values at or beyond the usual limits of such assays
[2] = target: HLA-C*06:02; assay: as above
[3] = target: HLA-A*02:16; assay: IEDB peptide-MHC binding, purified MHC/competitive/fluorescence; filed as Kd, often an IC50 or EC50 that approximates it; ≥ and ≤ were set here for values at or beyond the usual limits of such assays; details: source organism: Human immunodeficiency virus type 1 (ELI ISOLATE)
[4] = target: HLA-A*02:01; assay: as above
[5] = target: HLA-A*69:01; assay: as above
[6] = target: HLA-A*02:19; assay: as above; details: source organism: Human immunodeficiency virus type 1 (ELI ISOLATE)
[7] = target: HLA-A*02:11; assay: as above; details: source organism: Human immunodeficiency virus type 1 (ELI ISOLATE)
[8] = target: HLA-B*15:09; assay: as above
[9] = target: HLA-A*02:03; assay: as above
[10] = target: HLA-A*02:06; assay: as above
[11] = target: HLA-B*15:42; assay: as above
[12] = target: HLA-B*83:01; assay: as above
[13] = target: HLA-B*45:06; assay: as above
[14] = target: HLA-C*04:01; assay: as above
[15] = target: HLA-B*08:01; assay: as above; details: source organism: Escherichia coli
[16] = target: HLA-B*15:01; assay: as above; details: source organism: Escherichia coli
[17] = target: HLA-B*44:02; assay: IEDB peptide-MHC binding, purified MHC/direct/fluorescence; filed as Kd, often an IC50 or EC50 that approximates it; ≥ and ≤ were set here for values at or beyond the usual limits of such assays; details: source organism: dengue virus type 1
[18] = target: HLA-B*18:01; assay: as above
[19] = target: HLA-B*44:03; assay: IEDB peptide-MHC binding, purified MHC/competitive/radioactivity; filed as Kd, often an IC50 or EC50 that approximates it; ≥ and ≤ were set here for values at or beyond the usual limits of such assays; details: source organism: Dengue virus 2 Jamaica/1409/1983
[20] = target: HLA-A*02:01; assay: IEDB peptide-MHC binding, purified MHC/direct/fluorescence; filed as Kd, often an IC50 or EC50 that approximates it; ≥ and ≤ were set here for values at or beyond the usual limits of such assays; details: source organism: Francisella tularensis subsp. holarctica LVS
[21] = target: HLA-A*02:19; assay: as above; details: source organism: Francisella tularensis subsp. tularensis FSC033
[22] = target: HLA-A*02:11; assay: as above; details: source organism: Francisella tularensis subsp. tularensis FSC033
[23] = target: HLA-A*02:12; assay: as above; details: source organism: Francisella tularensis subsp. tularensis FSC033
[24] = target: HLA-B*58:01; assay: as above; details: source organism: Camelpox virus M-96
[25] = target: HLA-B*40:01; assay: as above; details: source organism: Camelpox virus M-96
[26] = target: HLA-B*15:17; assay: as above; details: source organism: Camelpox virus M-96
[27] = target: HLA-B*07:02; assay: as above; details: source organism: Camelpox virus M-96
[28] = target: HLA-A*03:01; assay: as above; details: source organism: Camelpox virus M-96
[29] = target: HLA-A*01:01; assay: as above; details: source organism: Camelpox virus M-96
[30] = target: HLA-B*46:01; assay: as above; details: source organism: Camelpox virus M-96
[31] = target: HLA-B*57:01; assay: as above; details: source organism: Camelpox virus M-96
[32] = target: HLA-B*48:01; assay: as above; details: source organism: Camelpox virus M-96
[33] = target: HLA-B*27:05; assay: as above; details: source organism: Camelpox virus M-96
[34] = target: HLA-A*11:01; assay: as above; details: source organism: Camelpox virus M-96
[35] = target: HLA-A*31:01; assay: as above; details: source organism: Camelpox virus M-96
[36] = target: HLA-B*15:01; assay: as above; details: source organism: Camelpox virus M-96
[37] = target: HLA-B*51:01; assay: as above; details: source organism: Camelpox virus M-96
[38] = target: HLA-B*39:01; assay: IEDB peptide-MHC binding, purified MHC/competitive/fluorescence; filed as Kd, often an IC50 or EC50 that approximates it; ≥ and ≤ were set here for values at or beyond the usual limits of such assays; details: source organism: Vaccinia virus WR
[39] = source organism: Mycobacterium tuberculosis C
[40] = source organism: Human immunodeficiency virus type 1 (ELI ISOLATE)
[41] = source organism: Escherichia coli
[42] = source organism: dengue virus type 2
[43] = source organism: Francisella tularensis subsp. tularensis FSC198
[44] = source organism: Vaccinia virus WR

With FAPDRVGAL the Kd [1, 39] was 0.673 µM and the Kd [2, 39] was 1.89 µM.
For FLGRIWPS, the Kd [3] was ≤ 0.0001 µM, the Kd [4, 40] was 0.00133 µM and the Kd [5, 40] was ≥ 5 µM. For the same sequence, the Kd [6] was 0.0018 µM, the Kd [7] was ≤ 0.0001 µM and the Kd [8, 40] was ≥ 20 µM. The Kd [9, 40] was 0.00024 µM and the Kd [10, 40] was ≤ 0.0001 µM.
In the case of FVYSVSFHK, the Kd [11, 39] is reported as ≥ 5 µM, the Kd [12, 39] is reported as ≥ 5 µM and the Kd [13, 39] is reported as ≥ 5 µM. The Kd [14, 39] was ≥ 5 µM.
MERFSWHVA was tested, and the Kd [11, 41] was ≥ 5 µM, the Kd [12, 41] was ≥ 5 µM and the Kd [13, 41] was 4.81 µM. For the same sequence, the Kd [15] was ≥ 20 µM, the Kd [14, 41] was ≥ 5 µM and the Kd [16] was ≥ 20 µM.
With SEMGANFKA the Kd [17] was 15.9 µM, the Kd ([18]; source organism: dengue virus type 1) was 0.119 µM and the Kd [11, 42] was ≥ 5 µM. For the same sequence, the Kd [12, 42] was ≥ 5 µM, the Kd [13, 42] was ≥ 5 µM and the Kd [14, 42] was ≥ 5 µM. The Kd [19] was 0.136 µM.
In the case of YMYQYIQEL, the Kd [1, 43] is reported as 0.736 µM, the Kd [20] is reported as ≤ 0.001 µM and the Kd [21] is reported as 0.002 µM. The Kd [2, 43] was 0.006 µM, the Kd [22] was ≤ 0.001 µM and the Kd [23] was 0.002 µM.
For YPAVINSNI, the Kd [24] was ≥ 20 µM, the Kd [25] was ≥ 20 µM and the Kd [26] was ≥ 20 µM. The Kd [27] was 0.373 µM, the Kd [28] was ≥ 20 µM and the Kd [29] was ≥ 20 µM. The Kd [30] was ≥ 20 µM, the Kd [31] was ≥ 20 µM and the Kd [32] was ≥ 20 µM. For the same sequence, the Kd [33] was ≥ 20 µM, the Kd [34] was ≥ 20 µM and the Kd [35] was ≥ 20 µM. For the same sequence, the Kd [36] was ≥ 20 µM, the Kd [37] was 0.296 µM and the Kd ([18]; source organism: Camelpox virus M-96) was ≥ 20 µM. The Kd [4, 44] was ≥ 20 µM, the Kd [5, 44] was 0.596 µM and the Kd [38] was 2.81 µM. For the same sequence, the Kd [8, 44] was ≥ 20 µM, the Kd [9, 44] was 3.82 µM and the Kd [10, 44] was 4.11 µM.
